The record followed here is publication PMC9772109 (Immunity, 2022).

This experiment has as its target H1 HA (recombinant HA of Figure 4E) (Influenza A virus, H1 subtype; strain …, UniProt A0A1J0CXU0). Briefly: BLI.

B1: mAb 789-203-3C12 (IgG) (antibody, V domains shown)
VH: QVQLQESGPGLVKPSEILSLTCAVSGGSFSSYCWGWIRQPPGKGLEWIGSICGSGGSNYLNPSLKSRVTLSVDTSKNQFSLILNSVTAADTAVYYCAREGITIFGVVIPRVLDSWGQGAVVTVSS
VL: DIQMTQSPSSLSASVGDTVTITCRASQSISSWLAWYQQKPGKAPNLLIYRASTLQSGVPSRFSGSGSGTDFTLTISSLQSEDFATYFCQQSTSSPFTFGPGTKLDIK
In the case of B1, the binding result is listed as “binds”.
